One molecule from patent US9889179B2, “FGF-18 compound dosing regimen” (MERCK PATENT GMBH, priority 2014, dated 2018) can be followed below.

Entries after “also recorded” stand apart in the source; their conditions may differ.

For data set [1], the system named is rat model of OA (ACLT with tMx). Briefly: ACLT+tMx rat model of OA, intracycle dosing frequency of sprifermin (Example 6). The class given is in vivo, male Lister Hooded Rats. The method, then: The goal of this study was to evaluate the effect of different intracycle dosing frequency of the same total dosage (3×1 μg) of sprifermin on cartilage volume in a rat model of OA. The anterior cruciate ligament transection (ACLT) with resection of the medial meniscus (tMx) was performed as disclosed in Example 1. Joints from male Lister Hooded Rats (200-260 g, Charles River) were used in this study. Animals were euthanized 18 weeks post-surgery.
The changes in the joint are related to clinical assessments in OA (cartilage loss, osteophytes, subchondral sclerosis). One μg sprifermin in saline was injected three times either weekly, every 2nd, every 3rd, every 4th or every 5th week and compared to appropriate vehicle groups. Body weight, joint diameters and clinical health scores were investigated weekly.

Data set [2] concerns Primary articular porcine chondrocytes. Briefly: Porcine chondrocyte proliferation with or without IL1α challenge (Example 4). It counts as cell-based, pig. Particulars: 100 ng/mL; for increase in the cell number versus control (medium, no IL1α): 8 days of culture; for stimulation of proliferation versus control (medium, IL1α 10 ng/mL): 8 days. The method, then: Porcine chondrocytes were isolated from the cartilage of a femoral head of a pig hip (pigs were approximately one year old). After dissection of the joints, the cartilage was harvested and digested for 45 minutes with collagenase 0.25% ( 1/10 dilution of collagenase NBG4 2.5% in HAM's F12) at room temperature. The loosened cells were discarded and the cartilage further digested overnight with collagenase 0.1% ( 1/25 dilution of collagenase NBG4 2.5% in HAM's F12) at 37° C. to extract the chondrocytes. For this study, the chondrocytes were cultured in a monolayer.
Primary articular porcine chondrocytes were stimulated or not with 10 ng/mL IL1α and were either treated immediately or 6 hours later with anakinra 100 ng/mL and/or trFGF-18 100 ng/mL. Each condition was performed in 4 or 6-plicate. As a control, cells were also cultured with anakinra alone, trFGF-18 alone or in the absence of any treatment (medium).
Pre-culture: After cell isolation porcine chondrocytes were inoculated at 20,000 cells/cm^2 and cultivated for one week in complete HAM's F12. Cells were then harvested with accutase, counted and used as described below.
For cells treated directly with anakinra: Chondrocytes were inoculated in a 24-well plate at 15,000 cells/well in 0.5 mL of complete HAM's F12. Then 0.25 mL of trFGF-18 400 ng/mL and/or 0.25 mL of anakinra 400 ng/mL were added to the cells. In the challenged samples, 10 μL of IL1α at 1,000 ng/mL were also added to the cells. trFGF-18, anakinra and IL1α were all diluted in complete HAM's F12. The final volume in the culture well was adjusted to 1 mL with complete HAM's F12. Final concentrations were 10 ng/mL IL1α, 100 ng/mL trFGF-18 and 100 ng/mL anakinra and the total culture time was eight days. A complete medium change was performed after four days. N=4.
For cells treated with anakinra and trFGF-18 6 hours after the IL1α challenge: Chondrocytes were inoculated in a 24-well plate at 15,000 cells/well in 1 mL of complete HAM's F12 containing or not containing IL1α 10 ng/mL. After 6 hours the medium was removed and replaced with 0.25 mL trFGF-18 400 ng/mL and/or 0.25 mL of anakinra 400 ng/mL. In the challenged samples, 0.25 mL of IL1α at 40 ng/mL was also added to the cells. trFGF-18, anakinra and IL1α were all diluted in complete HAM's F12. The final volume in the culture well was adjusted to 1 mL with complete HAM's F12. Final concentrations were 10 ng/mL IL1α, 100 ng/mL trFGF-18 and 100 ng/mL anakinra and the total culture time was eight days. A complete medium change was performed after four days. N=6.
After eight days of culture, cells were harvested with accutase and resulting cell suspensions were analyzed for cell concentration and cell viability with a ViCell™ cell analyzer (from Beckman Coulter). […]

Data set [3] relates to ACLT+tMx model of instability-induced OA. The data set is described as follows: ACLT+tMx model of instability-induced OA, cartilage matrix deposition by Safranin-O (Example 1). The class given is in vivo, male Lewis rats. The method, then:
The anterior cruciate ligament transection with resection of the medial meniscus (ACLT+tMx) model of instability-induced OA was performed in male Lewis rats 10-15 weeks of age. Briefly, under anesthesia with Isoflurane, the joint capsule of the right knee of each rat was opened, the anterior cruciate and the meniscus fixating ligaments were sharply transected, the meniscus was removed and the capsule, muscles and skin closed by sutures. Animals were randomly allocated into 10 groups of n=10 each. The following dosages were investigated: 0, 0.3, 1, 3 and 10 μg per intra-articular injection. Groups 1-5 received one cycle of three single injections at weekly intervals, group 6-10 three single injections at monthly intervals. Intra-articular treatment was started three weeks post-surgery. At this time pathophysiological changes are already mainifest, e.g., cartilage matrix loss. Animals were euthanized 17 weeks after surgery and joints were investigated.

Data set [4] concerns full-thickness defect in the articular cartilage of the trochlear groove. The class given is in vivo, New Zealand White rabbits. The text has this: 60 adult male, naïve, New Zealand White rabbits were used for this study. Animals were approximately 3-4 months of age. Rabbits underwent surgery for creation of the cartilage defect right knee. A 2 mm by 6 mm full-thickness defect was made in the articular cartilage of the trochlear groove. The microfracture was created using 18 gauge needles. Two 3 mm deep microfractures were made through the subchondral bone at the base of the defect, one proximally and one distally. Each microfracture hole was approximately 1.5 mm in diameter and the holes separated by 2 mm. The experiment consisted of the following six treatment groups, with 10 animals in each group for a total of 60 rabbits (Table 2). Rabbits in Groups 3, 4, 5 and 6 were treated with intra-articular rhFGF-18 in either one cycle of three weekly injections of 100 μg of rhFGF-18 (Group 3 and 5) or one cycle of three monthly injections of 100 μg of rhFGF-18 (Group 4 and 6). All animals were euthanized and necropsied 6 months after surgery. [table]

B1: trFGF-18: recombinant truncated form of human FGF-18 (170 amino acids, SEQ ID NO: 2), produced in E. coli (protein)
chain: MEENVDFRIHVENQTRARDDVSRKQLRLYQLYSRTSGKHIQVLGRRISARGEDGDKYAQLLVETDTFGSQVRIKGKETEFYLCMNRKGKLVGKPDGTSKECVFIEKVLENNYTALMSAKYSGWYVGFTKKGRPRKGPKTRENQQDVHFMKRYPKGQPELQKPFKYTTVTK
modifications: Recombinant truncated FGF-18(trFGF-18)
In the case of B1, the “cartilage denudation, stereology” value in data set [1] (3 x 1 μg/joint, 18 weeks post-surgery) was “prevented more or less complete cartilage denudation”. Also, in data set [1] (One μg/joint once every 3rd week, three injections in total, listed as rhFGF-18), the “cartilage volume on medial tibia” value is “statistically significant difference over saline; also recorded: most beneficial structural outcome”. In data set [1] (all groups treated (weekly to every 5th week)), the “cartilage volume compared to placebo” value is given as “higher cartilage volume values”. Also, the joint diameters entry in data set [1] (between injections every 2nd, 3rd or 4th week) is recorded as “No significant differences”. The “AUC of joint diameters” value in data set [1] (injected every 5th week) is recorded as “the same as with saline injections”. For the same molecule, the “joint diameters (AUC of joint diameter difference)” value in data set [1] (injections in week 3, 4 and 5 versus week 3, 8 and 13) is “significantly higher”. Besides, the body weight gain result in data set [1] (intra-articular injections, 3 x 1 μg) was “no influence”. Besides, the “increase in the cell number versus control (medium, no IL1α)” value in data set [2] (first experiment (direct treatment, N=4)) is given as 11.25 fold; in data set [2] (second experiment (6-hour delay, N=6)), 7.75 fold. Further, the “stimulation of proliferation versus control (medium, IL1α 10 ng/mL)” value in data set [2] (first experiment (direct treatment)) is on record as 2.38 fold; in data set [2] (second experiment (6-hour delay)) it was 2.44 fold. Besides, the “dose at which neo-formation of cartilaginous tissue became significant” value in data set [3] (lateral tibia, independently of the injection regime (three i.a. injections weekly or monthly), 17 weeks after surgery) stood at 1 μg/joint; in data set [3] (medial tibia, one-monthly regimen, three i.a. injections), 0.3 μg/joint; in data set [3] (medial tibia, one-weekly regimen, three i.a. injections), 1 μg/joint. Besides, the “animals with intercondylar groove filled with cartilage” value in data set [4] (Group 4: no microfracture, monthly x3, nearly normal to slightly roughened or granular cartilage) is listed as 6/9. For the same molecule, the “animals with intercondylar groove filled” value in data set [4] (Group 6: microfracture, monthly x3, finely granular to granular cartilage) is given as 3/10. In data set [4] (Group 6: microfracture, monthly x3, granular to coarsely granular cartilage), the “animals with groove 50% filled to nearly completely filled” value is on record as 7/10. The “increase in defect fill percentages” value in data set [4] (no microfracture, monthly for three months, significant) was found to be 48%. Also, the necropsy findings result in data set [4] (rabbit, in vivo) is “stimulation of osteophytes on the medial and lateral trochlear ridges”.
